Laboratory results from publication PMC12102759 (2025).

B1: CBL peptide 538-553 (E3 ubiquitin-protein ligase CBL), 16-mer library wild type / YES SH3 (YES1 SH3 domain, residues 90-152) (parent complex)
chain 1: TLRDLPPPPPPDRPYS
chain 2: not shown

Variants of: B1
Test: proteomic peptide phage display deep mutational scan (ProP-PD DMS): M13 P8 16-mer library selected against immobilised GST-tagged bait for four days (rounds), NGS of the eluted pools per day and pseudo-replica; bait immobilised on MaxiSorp plates (10 µg), library pre-cleared on GST, 2 h binding at 4 °C, five washes; one round per day, days 1-4; value from days 2 and 3

Row | Variant | screen value
1 | chain 1 P10Y | 0.00108 average fractional NGS count over selection days 2 and 3 (reads of this peptide / all reads for the bait, averaged over …
2 | chain 1 S16K | 0.00025 average fractional NGS count over selection days 2 and 3 (reads of this peptide / all reads for the bait, averaged over …
3 | chain 1 R13W | 0.00314 average fractional NGS count over selection days 2 and 3 (reads of this peptide / all reads for the bait, averaged over …
4 | chain 1 P11S | 4.62e-05 average fractional NGS count over selection days 2 and 3 (reads of this peptide / all reads for the bait, averaged over …
5 | chain 1 Y15F | 0.00101 average fractional NGS count over selection days 2 and 3 (reads of this peptide / all reads for the bait, averaged over …
6 | chain 1 P8Y | 0.00011 average fractional NGS count over selection days 2 and 3 (reads of this peptide / all reads for the bait, averaged over …
7 | chain 1 R3M | 0.000204 average fractional NGS count over selection days 2 and 3 (reads of this peptide / all reads for the bait, averaged over …
8 | chain 1 S16I | 0.00716 average fractional NGS count over selection days 2 and 3 (reads of this peptide / all reads for the bait, averaged over …
9 | chain 1 P7K | 0.000378 average fractional NGS count over selection days 2 and 3 (reads of this peptide / all reads for the bait, averaged over …
10 | chain 1 P11Q | 0.000805 average fractional NGS count over selection days 2 and 3 (reads of this peptide / all reads for the bait, averaged over …
11 | chain 1 L2F | 0.00251 average fractional NGS count over selection days 2 and 3 (reads of this peptide / all reads for the bait, averaged over …
12 | chain 1 P9Q | 0.000144 average fractional NGS count over selection days 2 and 3 (reads of this peptide / all reads for the bait, averaged over …
13 | chain 1 P9S | 0.000162 average fractional NGS count over selection days 2 and 3 (reads of this peptide / all reads for the bait, averaged over …
14 | chain 1 R3D | 8.49e-05 average fractional NGS count over selection days 2 and 3 (reads of this peptide / all reads for the bait, averaged over …
15 | chain 1 D12H | 0.00265 average fractional NGS count over selection days 2 and 3 (reads of this peptide / all reads for the bait, averaged over …
16 | chain 1 P10R | 0.000614 average fractional NGS count over selection days 2 and 3 (reads of this peptide / all reads for the bait, averaged over …
17 | chain 1 D4A | 0.000274 average fractional NGS count over selection days 2 and 3 (reads of this peptide / all reads for the bait, averaged over …
18 | chain 1 D12L | 0.00406 average fractional NGS count over selection days 2 and 3 (reads of this peptide / all reads for the bait, averaged over …
19 | chain 1 L2I | 0.000452 average fractional NGS count over selection days 2 and 3 (reads of this peptide / all reads for the bait, averaged over …
20 | chain 1 P14E | 0.000212 average fractional NGS count over selection days 2 and 3 (reads of this peptide / all reads for the bait, averaged over …
21 | chain 1 L2R | 0.000311 average fractional NGS count over selection days 2 and 3 (reads of this peptide / all reads for the bait, averaged over …
22 | chain 1 P8F | 5.53e-05 average fractional NGS count over selection days 2 and 3 (reads of this peptide / all reads for the bait, averaged over …
23 | chain 1 Y15W | 0.000273 average fractional NGS count over selection days 2 and 3 (reads of this peptide / all reads for the bait, averaged over …
24 | chain 1 L2N | 0.00027 average fractional NGS count over selection days 2 and 3 (reads of this peptide / all reads for the bait, averaged over …
25 | chain 1 R3G | 0.00132 average fractional NGS count over selection days 2 and 3 (reads of this peptide / all reads for the bait, averaged over …

Row | Variant | screen value
26 | chain 1 P11A | 0.000414 average fractional NGS count over selection days 2 and 3 (reads of this peptide / all reads for the bait, averaged over …
27 | chain 1 P8E | 0.0001 average fractional NGS count over selection days 2 and 3 (reads of this peptide / all reads for the bait, averaged over …
28 | chain 1 S16D | 0.00258 average fractional NGS count over selection days 2 and 3 (reads of this peptide / all reads for the bait, averaged over …
29 | chain 1 D4M | 0.0013 average fractional NGS count over selection days 2 and 3 (reads of this peptide / all reads for the bait, averaged over …
30 | chain 1 R3P | 8.03e-05 average fractional NGS count over selection days 2 and 3 (reads of this peptide / all reads for the bait, averaged over …
31 | chain 1 P7N | 0.000153 average fractional NGS count over selection days 2 and 3 (reads of this peptide / all reads for the bait, averaged over …
32 | chain 1 R13E | 0.000127 average fractional NGS count over selection days 2 and 3 (reads of this peptide / all reads for the bait, averaged over …
33 | chain 1 D4P | 0.00043 average fractional NGS count over selection days 2 and 3 (reads of this peptide / all reads for the bait, averaged over …
34 | chain 1 P11W | 0.000174 average fractional NGS count over selection days 2 and 3 (reads of this peptide / all reads for the bait, averaged over …
35 | chain 1 Y15V | 0.00865 average fractional NGS count over selection days 2 and 3 (reads of this peptide / all reads for the bait, averaged over …
36 | chain 1 S16M | 0.00227 average fractional NGS count over selection days 2 and 3 (reads of this peptide / all reads for the bait, averaged over …
37 | chain 1 R3S | 0.000276 average fractional NGS count over selection days 2 and 3 (reads of this peptide / all reads for the bait, averaged over …
38 | chain 1 P10L | 0.000964 average fractional NGS count over selection days 2 and 3 (reads of this peptide / all reads for the bait, averaged over …
39 | chain 1 L2T | 0.00177 average fractional NGS count over selection days 2 and 3 (reads of this peptide / all reads for the bait, averaged over …
40 | chain 1 S16P | 0.00387 average fractional NGS count over selection days 2 and 3 (reads of this peptide / all reads for the bait, averaged over …
41 | chain 1 L2W | 0.00229 average fractional NGS count over selection days 2 and 3 (reads of this peptide / all reads for the bait, averaged over …
42 | chain 1 P10A | 0.000136 average fractional NGS count over selection days 2 and 3 (reads of this peptide / all reads for the bait, averaged over …
43 | chain 1 L2E | 0.00558 average fractional NGS count over selection days 2 and 3 (reads of this peptide / all reads for the bait, averaged over …
44 | chain 1 P7G | 0.000231 average fractional NGS count over selection days 2 and 3 (reads of this peptide / all reads for the bait, averaged over …
45 | chain 1 P8T | 0.000116 average fractional NGS count over selection days 2 and 3 (reads of this peptide / all reads for the bait, averaged over …
46 | chain 1 P9L | 0.000514 average fractional NGS count over selection days 2 and 3 (reads of this peptide / all reads for the bait, averaged over …
47 | chain 1 P10H | 0.00108 average fractional NGS count over selection days 2 and 3 (reads of this peptide / all reads for the bait, averaged over …
48 | chain 1 P7A | 0.00162 average fractional NGS count over selection days 2 and 3 (reads of this peptide / all reads for the bait, averaged over …
49 | chain 1 P11D | 7.75e-05 average fractional NGS count over selection days 2 and 3 (reads of this peptide / all reads for the bait, averaged over …
50 | chain 1 R13H | 6.28e-05 average fractional NGS count over selection days 2 and 3 (reads of this peptide / all reads for the bait, averaged over …

Row | Variant | screen value
51 | chain 1 D4Y | 0.00195 average fractional NGS count over selection days 2 and 3 (reads of this peptide / all reads for the bait, averaged over …
52 | chain 1 P11T | 0.00257 average fractional NGS count over selection days 2 and 3 (reads of this peptide / all reads for the bait, averaged over …
53 | chain 1 P7T | 0.000231 average fractional NGS count over selection days 2 and 3 (reads of this peptide / all reads for the bait, averaged over …
54 | chain 1 D12Q | 0.00108 average fractional NGS count over selection days 2 and 3 (reads of this peptide / all reads for the bait, averaged over …
55 | chain 1 S16H | 0.00402 average fractional NGS count over selection days 2 and 3 (reads of this peptide / all reads for the bait, averaged over …
56 | chain 1 D12V | 0.00115 average fractional NGS count over selection days 2 and 3 (reads of this peptide / all reads for the bait, averaged over …
57 | chain 1 R13F | 0.000441 average fractional NGS count over selection days 2 and 3 (reads of this peptide / all reads for the bait, averaged over …
58 | chain 1 S16Q | 9.78e-05 average fractional NGS count over selection days 2 and 3 (reads of this peptide / all reads for the bait, averaged over …
59 | chain 1 P10S | 0.00132 average fractional NGS count over selection days 2 and 3 (reads of this peptide / all reads for the bait, averaged over …
60 | chain 1 P14L | 0.00213 average fractional NGS count over selection days 2 and 3 (reads of this peptide / all reads for the bait, averaged over …
61 | chain 1 Y15N | 7.8e-05 average fractional NGS count over selection days 2 and 3 (reads of this peptide / all reads for the bait, averaged over …
62 | chain 1 P10M | 0.000512 average fractional NGS count over selection days 2 and 3 (reads of this peptide / all reads for the bait, averaged over …
63 | chain 1 L2M | 0.00216 average fractional NGS count over selection days 2 and 3 (reads of this peptide / all reads for the bait, averaged over …
64 | chain 1 D12T | 0.00128 average fractional NGS count over selection days 2 and 3 (reads of this peptide / all reads for the bait, averaged over …
65 | chain 1 R13I | 0.000728 average fractional NGS count over selection days 2 and 3 (reads of this peptide / all reads for the bait, averaged over …
66 | chain 1 R3K | 0.000536 average fractional NGS count over selection days 2 and 3 (reads of this peptide / all reads for the bait, averaged over …
67 | chain 1 P10F | 0.0021 average fractional NGS count over selection days 2 and 3 (reads of this peptide / all reads for the bait, averaged over …
68 | chain 1 P14V | 0.0011 average fractional NGS count over selection days 2 and 3 (reads of this peptide / all reads for the bait, averaged over …
69 | chain 1 D4F | 5.77e-05 average fractional NGS count over selection days 2 and 3 (reads of this peptide / all reads for the bait, averaged over …
70 | chain 1 Y15M | 0.000526 average fractional NGS count over selection days 2 and 3 (reads of this peptide / all reads for the bait, averaged over …
71 | chain 1 P9A | 0.000623 average fractional NGS count over selection days 2 and 3 (reads of this peptide / all reads for the bait, averaged over …
72 | chain 1 P11K | 0.00117 average fractional NGS count over selection days 2 and 3 (reads of this peptide / all reads for the bait, averaged over …
73 | chain 1 S16L | 0.000883 average fractional NGS count over selection days 2 and 3 (reads of this peptide / all reads for the bait, averaged over …
74 | chain 1 Y15Q | 0.000766 average fractional NGS count over selection days 2 and 3 (reads of this peptide / all reads for the bait, averaged over …
75 | chain 1 P7M | 0.000243 average fractional NGS count over selection days 2 and 3 (reads of this peptide / all reads for the bait, averaged over …
